From patent publication US20260130997A1 (BEAM THERAPEUTICS, published 2026)
Where a chain is given by its changes, count along the chain named.

Columns and labels:
[1] = molecular target: T1, purified CD45 protein N267G (Homo sapiens, UniProt P08575 225-394, limits assumed); experiment: biosensor; 100 nM mAb030-9 captured with Anti-Human IgG Fc Capture (AHC), 300 nM purified CD45 protein
T1 construct: Purified CD45 variant of the biosensor assay
T1 chain: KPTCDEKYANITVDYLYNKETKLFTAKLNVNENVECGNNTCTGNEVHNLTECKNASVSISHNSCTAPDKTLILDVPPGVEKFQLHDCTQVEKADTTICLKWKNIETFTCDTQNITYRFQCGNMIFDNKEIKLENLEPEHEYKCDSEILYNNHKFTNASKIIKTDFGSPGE
Procedure: (§1) 300 nM of purified CD45 protein was contacted with the immobilized antibody. At 300 s the biosensor was placed in buffer without purified CD45 protein.

[2] = molecular target: T2, purified CD45 protein E259G (Homo sapiens, UniProt P08575 225-394, limits assumed); experiment: as above
T2 construct: Purified CD45 variant of the biosensor assay
T2 chain: T1 chain with E35G, G43N
Procedure: as §1

response [1]: < 0.05 nm
response [2]: < 0.05 nm
B1: mAb U139AGL030-9 (mAb030-9) (antibody, mouse IgG1, kappa, V domains shown)
VH: EVKLLESGGGLVQPGGSLKLSCAASGFDFSRYWMSWVRQAPGKGLEWIGEINPTSSTINFTPSLKDKVFISRDNAKNTLYLQMSKVRSEDTALYYCARGNYYRYGDAMDYWGQGTSVTVSS
VL: DIALTQSPASLAVSLGQRATISCRASKSVSTSGYSYLHWYQQKPGQPPKLLIYLASNLESGVPARFSGSGSGTDFTLNIHPVEEEDAATYYCQHSRELPFTFGSGTKLEIKR
notes: In the biosensor assay the antibody was captured with Anti-Human IgG Fc Capture (AHC); also called mAb30-9; mAb039-9
